Reference: patent US20240052063A1, “Binding Proteins 2” (Nucleus Therapeutics Pty. Ltd., priority 2017, published 2024)
“Also recorded” adds a separate entry of the source.

What was measured:
DLD1 colon cancer cells = experiment: Alkaline phosphatase-based survey of nuclear penetration; type: cell-based; settings: DLD1 cells treated one hour; FIG. 5
[1] = system: PTEN-deficient U251 human glioma cells; experiment: Phospho-53BP1 foci accumulation (DNA damage), PTEN-deficient cells; type: cell-based
Procedure: A matched pair of PTEN-proficient and deficient U251 human glioma cells were treated with control media or media containing Variant 10, 11, 13, 15, or 16 for twenty-four hours. Cells were then washed, fixed, blocked, and then probed with an anti-phospho-53BP1 antibody overnight. Cells were then washed and incubated with an AlexaFluor555-conjugated secondary antibody. Finally, cells were washed, counterstained with DAPI, and visualized under a fluorescence microscope. Images were saved and evaluated by CellProfiler to determine mean number of phospho-53BP1 foci per cell.
(§1) A matched pair of BRCA2-proficient and deficient DLD1 colon cancer cells and PTEN-proficient and deficient U251 human glioma cells were treated with control media or media containing 10 μM di-scFv variant 13 (SEQ ID NO: 41), 5 nM olaparib, or combination treatment.

[2] = system: PTEN-deficient U87 human glioma cells; experiment: Cell viability by Trypan blue exclusion assay and light microscopy; type: cell-based; settings: PTEN-deficient U87, 7 days after treatment, FIG. 9
Procedure: Cell viability of PTEN-deficient U87 human glioma cells was also assessed following treatment with control media or media containing Variants 10, 13, 15, or 16. Cell viability was determined 7 days after treatment using Trypan blue exclusion assay and by direct visualization of cell morphology by light microscopy.

[3] = system: BRCA2-proficient DLD1 colon cancer cells; experiment: Cell viability by Trypan blue exclusion assay, BRCA2-proficient cells; type: cell-based; settings: BRCA2-proficient DLD1, 7 days, FIG. 10
Procedure: (§2) Next, a matched pair of BRCA2-proficient and deficient DLD1 colon cancer cells was treated with control media or media containing Variants 10, 13, 15, or 16. Cell viability was determined 7 days later by Trypan blue exclusion assay and by direct visualization of cell morphology by light microscopy. […] Representative light microscope images shown the changes in morphology in the BRCA2-deficient cancer cells treated with the variants are shown in FIG. 10, Panel A. Quantitative analysis of the cell survival by Trypan blue exclusion assay is shown in FIG. 10, Panel B.

[4] = system: BRCA2-deficient DLD1 colon cancer cells; experiment: Cell viability by Trypan blue exclusion assay, BRCA2-deficient cells; type: cell-based; settings: BRCA2-deficient DLD1, 7 days, FIG. 10
Procedure: as §2

DLD-1 cells = experiment: Nuclear penetration by protein L immunostain of fixed cells; type: cell-based; settings: FIG. 11, listed as di-scFv (SEQ ID NO: 41)
Procedure: (§3) DLD-1 and MCF-7 cells were treated with control or di-scFv (SEQ ID NO: 41), and nuclear penetration was evaluated by protein L immunostain of fixed cells.

MCF-7 cells = experiment: as above; type: cell-based; settings: FIG. 12, listed as di-scFv (SEQ ID NO: 41)
Procedure: as §3

[5] = system: HDR-proficient DLD1 cells; experiment: Selectivity of combination therapy in HDR-proficient cells; type: cell-based; settings: 5 nM olaparib, 10 μM di-scFv, alone or combined
Procedure: Homology-directed repair (HDR) deficient BRCA2-DLD1 cells and PTEN-U251 cells were treated with control, 5 nM olaparib, 10 μM di-scFv, or 10 μM di-scFv+5 nM olaparib. Surviving fraction was determined by colony formation assay.
It was then determined whether the combination of di-scFv and olaparib is simply universally cytotoxic, regardless of DNA repair status. To evaluate this possibility, HDR-proficient DLD1 cells were treated with the above regimen to confirm selectivity of combination therapy to HDR-deficient malignant cells.

[6] = system: Primary human glioblastoma (GBM) cancer cells; experiment: Percentage of live cells by trypan blue staining; type: cell-based; settings: seven primary human GBM tumour explants, FIG. 14; listed as di-scFv (SEQ ID NO: 41)
Procedure: Primary human glioblastoma (GBM) cancer cells extracted from primary human GBM tumours from patients were treated with control or di-scFv (SEQ ID NO: 41), and percentage of live cells was evaluated by trypan blue staining.

[7] = system: human GBM cancer stem cells (CSCs) grown as tumour spheres; experiment: GBM cancer stem cell tumour spheres: penetration and sphere volume; type: cell-based; settings: listed as di-scFv (SEQ ID NO: 41)
Procedure: GBM cancer stem cells extracted from primary human GBM tumours from patients and grown as spheres were treated with control or di-scFv (SEQ ID NO: 41), and the effect of dose and incubation time on reduction of sphere volume was evaluated by confocal micrographs of DX1-rhodamine cellular penetration into GBM cells. Tumour spheres are recognised as a useful tool for pre-clinical studies as they retain tumour heterogeneity and more closely represent the original patient tumour.

[8] = system: GBM cells extracted from human GBM tumours (intracranial); experiment: Orthotopic mouse model of GBM; type: in vivo
Description: An orthotopic mouse model of GBM was generated by intracranial injection of GBM cells extracted from human GBM tumours.

[9] = system: BRCA2-deficient DLD1 colon cancer cells; experiment: Phospho-53BP1 foci accumulation, BRCA2-deficient cells; type: cell-based; settings: FIG. 17
Procedure: as §1

B1: Variant 13: cell penetrating anti-DNA di-scFv variant, amino acid sequence SEQ ID NO: 41 (protein)
scFv: DIQMTQSPSSLSASLGDRATITCRASKTVSTSSYSYMHWYQQKPGQPPKLLIKYASYLESGVPSRFSGSGSGTDFTLTISSLQPEDAATYYCQHSREFPWTFGGGTKVEIKRADAAPGGGGSGGGGSGGGGSEVQLVESGGGLVQPGGSLRLSCAASGFTFSNYGMHWVRQAPGKGLEWVSYISSGSSTIYYADSVKGRFTISRDNAKNSLYLQMNSLRAEDTAVYYCARRGLLLDYWGQGTTVTVSSASTKGPSVFPLAPLESSGSDIQMTQSPSSLSASLGDRATITCRASKTVSTSSYSYMHWYQQKPGQPPKLLIKYASYLESGVPSRFSGSGSGTDFTLTISSLQPEDAATYYCQHSREFPWTFGGGTKVEIKRADAAPGGGGSGGGGSGGGGSEVQLVESGGGLVQPGGSLRLSCAASGFTFSNYGMHWVRQAPGKGLEWVSYISSGSSTIYYADSVKGRFTISRDNAKNSLYLQMNSLRAEDTAVYYCARRGLLLDYWGQGTTVTVSS
modifications: Variant 13
DLD1 colon cancer cells
  nuclear penetration (histogram of cell counts versus nuclear staining intensity) relative to the yeast prototype: notable right shift and narrowing of distributions relative to the yeast prototype
[1]; HDR-deficient U251, 24 hour treatment, FIG. 17
  percentage of P53BP1-positive cells: increased
[1]; PTEN-deficient U251, twenty-four hours, FIG. 8
  mean number of phospho-53BP1 foci per cell: increased the number of foci
[1]; PTEN-deficient U251, 10 μM di-scFv, 5 nM olaparib, FIG. 17
  mean number of phospho-53BP1 foci per cell: increased the number of phospho-53BP1 foci
[2]
  cell viability relative to control treated cells: caused reductions in cell viability
[3]
  cell viability (toxicity): not toxic
[4]
  cell viability (cell killing): killed by the variants
DLD-1 cells
  nuclear penetration: successfully penetrated; also recorded: penetrates HDR deficient DLD-1 colon cancer cell nuclei
MCF-7 cells
  nuclear penetration: successfully penetrated; also recorded: penetrates HDR deficient MCF-7 breast cancer cell nuclei
[5]
  cell death: No effect on cell death
[6]
  cancer cell death (percentage of live cells): Five of the seven glioblastoma tumour explants treated with di-scFv (SEQ ID NO: 41) showed significant cancer cell death; also recorded: kills primary human glioblastoma cells
[7]; confocal micrographs, FIG. 15A
  cellular penetration into GBM spheres: demonstrated cellular penetration in GBM spheres; also recorded: penetrates human glioblastoma spheres
[7]; effect of dose and incubation time, FIG. 15B, C
  sphere volume: reduced sphere volume in dose-dependent and time-dependant manner; also recorded: reduces sphere volume in a time-dependent (B) and dose-dependent (C) manner
[8]; FIG. 16B
  incidence of apoptosis in tumours (TUNEL staining): increased incidence of apoptosis
[8]; body weight profile, FIG. 16D
  toxicity or weight loss associated with treatment: No toxicity or weight loss
[8]; controls median 72 days
  median survival longer than controls: more than 20%
[8]; group of 7 mice, FIG. 16E
  mean survival: 83 days
  median survival: 87 days
[8]; normal brain, FIG. 16C
  di-scFv in adjacent normal brain cells (protein L immunostaining): not evident
[8]; suggested by tumour size reduction and TUNEL staining
  crossing of the blood brain barrier: successfully crossed the blood brain barrier
[8]; tail vein injection, brain sections, FIG. 16A
  reduction of glioblastoma tumour size versus control mice: more than 40%
[8]; tumour tissue, FIG. 16C
  di-scFv in GBM tumour cells (protein L immunostaining): detected in the nuclei of GBM tumour cells
[9]; BRCA2-deficient DLD1, 10 μM di-scFv, 5 nM olaparib
  mean number of phospho-53BP1 foci per cell: increased the number of phospho-53BP1 foci
[9]; HDR-deficient DLD1, 24 hour treatment
  percentage of P53BP1-positive cells: increased
